Laboratory results: the supplement of paper PMC7125110
± gives the standard error. For some of these results: This sample holds only a part of the variants without activity.

B1: glmS ribozyme (parent)
chain: AUAAAAGCGCCAGAACUACAGAAAUGUAGUUGACGAGGAGGAGGUUUAUCGAAUUUUCGGCGGAUGCCUCCAAA

What was measured:
Settings in all cases: with glucosamine-6-phosphate
[1] = variants of: B1; assay: kcat; higher = faster cleavage; RNA array
How it was run: (§1)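 Weighted Michaelis–Menten fits across concentrations supplied kcat and KM, based on kobs from one- or two-exponential decay fits to normalised per-tile medians. The data came from barcoded ribozyme variants transcribed in situ by E. coli RNA polymerase on sequenced MiSeq chips and tracked at 37 °C by a hybridised Cy3 probe. Glucosamine-6-phosphate (40 μM to 10 mM) in HEPES/KCl/Mg(OAc)2 buffer was flowed in.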

[2] = variants of: B1; assay: self-cleavage kobs at 40 uM GlcN6P; higher = faster cleavage; RNA array
How it was run: as §1

[3] = variants of: B1; assay: self-cleavage kobs at 160 uM GlcN6P; higher = faster cleavage; RNA array
How it was run: as §1

[4] = variants of: B1; assay: self-cleavage kobs at 640 uM GlcN6P; higher = faster cleavage; RNA array
How it was run: as §1

[5] = variants of: B1; assay: KM; higher = weaker cofactor use; RNA array
How it was run: as §1

[6] = variants of: B1; assay: self-cleavage kobs at 2500 uM GlcN6P; higher = faster cleavage; RNA array
How it was run: as §1

[7] = variants of: B1; assay: self-cleavage kobs at 10000 uM GlcN6P; higher = faster cleavage; RNA array
How it was run: as §1

| Variant | kcat [1] [s⁻¹] | self-cleavage kobs at 40 uM GlcN6P [2] [s⁻¹] | self-cleavage kobs at 160 uM GlcN6P [3] [s⁻¹] | self-cleavage kobs at 640 uM GlcN6P [4] [s⁻¹] | KM [5] [µM] | self-cleavage kobs at 2500 uM GlcN6P [6] [s⁻¹] | self-cleavage kobs at 10000 uM GlcN6P [7] [s⁻¹] |
| --- | --- | --- | --- | --- | --- | --- | --- |
| A52C C67G | 1.74e-05 ± 6.9e-06 | – | – | – | – | – | – |
| A53U C70A | 0.000125 ± 2.5e-05 | 4.52e-05 ± 7.1e-06 | 7.24e-05 ± 1.2e-05 | 0.000117 ± 1.3e-05 | – | – | – |
| A53U G60A C70A | 1.78e-05 ± 4.4e-06 | – | – | – | – | – | – |
| G51A U54C | < 1e-05 | – | – | – | – | – | – |
| U54G G66A | 0.0134 ± 0.0022 | 0.000427 ± 4.8e-05 | 0.00123 ± 0.00022 | 0.00385 ± 0.00097 | 1380 ± 320 | 0.00659 ± 0.0015 | 0.0132 ± 0.0016 |
| A53U A64C | 8.67e-05 ± 2.2e-05 | – | – | – | – | 9.3e-05 ± 1.6e-05 | 7.17e-05 ± 1.1e-05 |
| U56G G60A | 2.37e-05 ± 6.7e-07 | < 1e-05 | – | – | 623 ± 130 | – | 2.25e-05 ± 1.1e-05 |
| U55G C71A | 0.00224 ± 0.00065 | 0.000162 ± 2.2e-05 | 0.000541 ± 0.00013 | 0.00113 ± 0.00015 | 528 ± 220 | 0.00315 ± 0.00085 | – |
| A53U C68A | 5.43e-05 ± 1.6e-05 | – | 3.62e-05 ± 1e-05 | 6.67e-05 ± 8.3e-06 | – | 6.54e-05 ± 9.8e-06 | – |
| A53U U56C C71U | 0.00121 ± 0.00019 | – | 4.8e-05 ± 1.3e-05 | – | 4240 ± 1000 | 0.000406 ± 9.1e-05 | 0.000903 ± 0.0002 |
| U54A C70A | 0.000115 ± 1.2e-05 | 5.92e-05 ± 7.9e-06 | 7.42e-05 ± 1.3e-05 | 0.000107 ± 1.4e-05 | 42.6 ± 17 | 0.000122 ± 1.5e-05 | – |
| U56A C67A | 0.00827 ± 0.0033 | 0.000132 ± 1.3e-05 | 0.000294 ± 4.8e-05 | 0.00132 ± 0.00016 | 3230 ± 1600 | 0.00323 ± 0.00075 | 0.00678 ± 0.0011 |
| U54C C68A | 2.49e-05 ± 6.3e-06 | < 1e-05 | – | – | – | – | – |
| U54A U65A | 0.00834 ± 0.0013 | 0.000105 ± 2.7e-05 | – | 0.00105 ± 0.00019 | 4300 ± 1100 | 0.00254 ± 0.00097 | 0.00595 ± 0.00078 |
| U54A U65G | 0.00357 ± 0.0014 | 5.78e-05 ± 9.8e-06 | 0.000211 ± 3.9e-05 | 0.000927 ± 0.00015 | – | 0.001 ± 0.00025 | 0.00358 ± 0.00043 |
| A52U G59A C68G | < 1e-05 | – | – | – | – | – | – |
| U56C A64G | 0.000167 ± 1.1e-05 | – | – | – | 2690 ± 560 | 8.52e-05 ± 2.8e-05 | 0.000131 ± 2e-05 |
| U55A C61U | 1.43e-05 ± 1.1e-06 | – | – | – | 1930 ± 520 | – | – |
